Test results: patent US20100184663A1 (UNIVERSITY OF UTAH RESEARCH FOUNDATION, published 2010)
Bridge positions count the residues as written; N and C are the ends. Square brackets hold non-standard residues; d marks the D form. Ends that are not written are not given here. I, II: the chains in the order shown.

B1: PEG-(PIE7)2 (peptide)
peptide: Ac-[dK]G[dA][dC][dD][dY][dP][dE][dW][dQ][dW][dL][dC][dA][dA]-NH2
modifications: disulfide 4-13 (inferred); also: dimer: N-terminal Lys of both peptides joined by Bis-dPEG9 NHS ester crosslinker
B2: C5C(PIE7-GK)3 (peptide)
peptide 1: G[dA][dC][dD][dY][dP][dE][dW][dQ][dW][dL][dC][dA][dA]G[dK]
peptide 2: G[dA][dC][dD][dY][dP][dE][dW][dQ][dW][dL][dC][dA][dA]G[dK][dK]
modifications: disulfide I:3-I:12, II:3-II:12 (inferred); also: trimer: two chain 1 copies joined via C-terminal Lys by PEG5 spacers to the C-terminal Lys of central chain 2

Tests used:
Assay in all cases: cell-based or functional assay
HIV-1 gp41 (HXB2 strain) [1] = molecular target: T1, HIV-1 gp41 (HXB2 strain) (HIV-1 HXB2, UniProt P04578 512-856)
HIV-1 gp41 (HXB2 strain) [2] = molecular target: T1, HIV-1 gp41 (HXB2 strain); remark: listed apart in the source
HIV-1 gp41 (JRFL strain) [3] = molecular target: HIV-1 gp41 (JRFL strain) (HIV-1 JRFL)
HIV-1 gp41 (HXB2 strain) [4] = molecular target: T1, HIV-1 gp41 (HXB2 strain); remark: listed apart in the source
HIV-1 gp41 (JRFL strain) [5] = molecular target: HIV-1 gp41 (JRFL strain) (HIV-1 JRFL); remark: listed apart in the source

Row | Binder | fold reduction in potency against unmodified PIE7, viral entry (HXB2) (HIV-1 gp41 (HXB2 strain) [1]) [fold] | IC50 (HXB2), single-cycle viral infectivity assay (HIV-1 gp41 (HXB2 strain) [2]) [nM] | IC50 (JRFL), pseudovirion entry (HIV-1 gp41 (JRFL strain) [3]) [nM] | IC50 (HXB2), pseudovirion entry (HIV-1 gp41 (HXB2 strain) [4]) [nM] | fold improvement of IC50 over the corresponding monomer (HIV-1 gp41 (HXB2 strain) [1]) [fold] | IC50 (JRFL), viral entry (HIV-1 gp41 (JRFL strain) [5]) [nM] | fold reduction in potency against JRFL compared with HXB2 (HIV-1 gp41 (JRFL strain) [5]) [fold] | fold potency against D10-p5, viral entry (HXB2) (HIV-1 gp41 (HXB2 strain) [1]) [fold] | fold difference in potency against JRFL between C5C-PIE7-trimer and N9N-PIE7-trimer (HIV-1 gp41 (JRFL strain) [5]) [fold]
1 | Ac-KG[dA][dC][dD][dY][dP][dE][dW][dQ][dW][dL][dC][dA][dA]-NH2 (disulfide 4-13 (inferred); not fully specified (residue 1)) [PEG-PIE7] | ~1.5 | 940 | – | – | – | – | – | – | –
2 | B1 | – | 1.9 | 2300 | 1.9 | ~325 | – | – | – | –
3 | Ac-[dK]G[dA][dC][dD][dY][dP][dE][dW][dQ][dW][dL][dC][dA][dA]-NH2 (disulfide 4-13 (inferred)) [PIE7] | – | 620 | 24000 | 620 | – | 24400 | ~40 | ~15 | –
4 | B2 | – | – | 6.73 | 0.13 | – | – | – | – | ~35
